Legend:
human αvβ3 protein = biological target: T1, human αvβ3 protein (Homo sapiens, UniProt P05106+P06756); test: Competition proliferation assay with soluble αvβ3 protein, C-PAE cells; type: cell-based, bovine
T1 construct: purchased CHEMICON Int'l, Temecula, Calif., USA
Experimental: C-PAE cells were plated into 96-well plates as described above for the endothelial cell proliferation assay. Tumstatin at a final concentration of 0.1 μg/ml was incubated with varying concentrations (0, 0.008, 0.08, 0.8, 1.6 and 2.4 μg/ml) of human αvβ3 protein (CHEMICON Int'l, Temecula, Calif., USA) for 30 minutes at room temperature. This mixture was then added into the wells, and incubated for 48 hours. The proliferation assay was then performed using the methylene blue staining method, as described above for the endothelial cell proliferation assay.
The integrin αvβ3 was then investigated for its ability to reverse the anti-proliferative effects of Tumstatin and Tum-2. Tumstatin and Tum-2 were incubated with αvβ3 protein for 30 minutes, and added to C-PAE cells which were plated in 96-well plates and incubated overnight with growth media. After incubation for 48 hours, the cell number was determined by methylene blue staining.
Integrin αvβ3 was investigate for its ability to reverse the anti-proliferative affects of peptide T3. T3 peptide was incubated with 0, 0.001, 0.01, 0.1, 0.5, or 1.0 μg/ml αvβ3 integrin protein (CHEMICON Int'l, Temecula, Calif., USA) for 30 minutes at room temperature, and was then added, at 20 μg/ml final concentration, to C-PAE cells that had been grown in 96-well plates in growth media. After 48 hours of additional incubation, cell number was determined by the methylene blue assay. The results are shown in FIG. 43C, which is a histogram showing the growth of C-PAE cells (y-axis) when treated with T3 peptide that had been pre-incubated with varying concentrations (x-axis) of αvβ3 integrin.
Soluble αvβ3 integrin protein reversed the anti-proliferative effects of Tumstatin-44-131. This was shown by a competition proliferation assay as described above in Example 26. […] E. Coli-expressed Tumstatin-44-131 was then incubated with αvβ3 integrin protein for 30 minutes, and then added to C-PAE cells with 20% FCS. After 48 hours, cell proliferation was determined by methylene blue staining. The anti-proliferative affect of Tumstatin-44-131 was reversed dose-dependently with increasing concentrations of αvβ3 soluble protein.

C-PAE cells = test: Annexin V-FITC apoptosis assay; type: cell-based, bovine; details: for Apo (Annexin V-FITC assay): Table 4; for IC50, induction of endothelial cell apoptosis: 10% FBS
Experimental: Fifty thousand C-PAE cells were added to each well of a 6-well tissue culture plate in DMEM supplemented with 10% FBS for 12 hours. Fresh medium together and either 5 μg/ml Arresten or 40 ng/ml TNFα (positive control) was added at 2, 4 and 6 hour time points. Control wells received an equal of volume of PBS. Detached cells and adherent cells were pooled together and centrifuged at 1500 rpm. Cells were washed with binding buffer (Clontech, Palo Alto, Calif., USA), and phosphatidyl-serine (PS) externalization, an indicator of apoptosis, was measured by labeling with FITC-labeled annexin V (Clontech) according to manufacturer's instructions. Annexin-FITC labeled cells were counted using a FACStar Plus flow cytometer (Becton-Dickinson, Waltham, Mass., USA). For each treatment, 10,000 cells were counted and stored. […] Relative to controls, the percentage of annexin-V-stained (apoptotic) cells increased to about 27% at 2 hours, and near 20% at 4 and 6 hours for the positive control, TNFα. For Arresten-treated cells, the percentage of apoptotic cells was about 18% at 2 hours, and about 23% at 4 and 6 hours.
Annexin V-FITC Labeling. In order to establish apoptosis as the potential mode of action for Canstatin, Annexin V-FITC was used to label externalized phosphatidylserine (PS), to assess apoptotic cells. 0.5×10^6 C-PAE cells, PC-3, 786-O and HEK 293 cells were added to each well of a 6 well tissue culture plate in 10% FBS supplemented DMEM (BioWhittaker, Walkersville, Md., USA) overnight. The next day, fresh medium was added to all wells together with 40 ng/ml TNF-α (positive control) or 15 μg/ml Canstatin. Control cells received an equal volume of PBS. After 24 hours of treatment, medium containing detached cells was collected and attached cells were trypsinized and combined with detached cells and centrifuged at 3,000×g. Cells were then washed and phosphatidyl-serine externalization (an early apoptotic indicator) was measured by labeling with FITC-labeled annexin V (Clontech, Palo Alto, Calif., USA) according to the manufacturer's instructions. Annexin V-FITC-labeled cells were counted using a FAC Star Plus flow cytometer (Becton-Dickenson, Waltham, Mass., USA). For each treatment 15,000 cells were counted and stored in listmode.
C-PAE cells (0.5×10^6 per well) were seeded onto a 6-well plate in 10% FCS supplemented DMEM. The next day, fresh medium containing 10% FCS was added with either 80 ng/ml of TNF-α (positive control) or Tumstatin ranging from 0.02 to 20 μg/ml. Control cells received an equal volume of PBS. After 18 hours of treatment, medium containing floating cells was collected, and attached cells were trypsinized and centrifuged together with floating cells at 3,000×g. The cells were then washed in PBS and resuspended in binding buffer (10 mM HEPES/NaOH, pH 7.4, 140 mM NaCl, 2.5 mM CaCl2). Annexin V-FITC (Clontech, Palo Alto, Calif., USA) was added to a final concentration of 150 ng/ml, and the cells were incubated in the darkness for 10 minutes. The cells were washed again in PBS and resuspended in binding buffer. Annexin V-FITC labeled cells were counted using a FACStar Plus flow cytometer (Becton-Dickinson, Waltham, Mass., USA). For each treatment, 15,000 cells were counted and stored in listmode.
Apoptosis was measured by Annexin V-FITC assay, using the ApoAlert kit (Clontech, Palo Alto, Calif., USA). Propidium iodide was used to stain the nuclei of cells that had died by ways other than apoptosis.
The assay was performed as described above, by treating C-PAE cells with Tumstatin-44-131 for 18 hours. Control cells received PBS.

PC-3 tumors = details: for tumor volume on day 10: 20 mg/kg i.p. daily for 10 days, control 202.8±50.0
Experimental: In a second PC-3 experiment, PC-3 cells were harvested from culture and 3 million cells were injected into 6- to 7-week-old athymic nude mice, and tumors were allowed to grow subcutaneously for approximately 2 weeks after which the animals were divided into groups of four mice. Experimental groups (4 mice) were injected daily I.P. with Canstatin at a dosage of 3 mg/kg in a total volume of 0.2 ml of PBS or endostatin at a dosage of 8 mg/kg in the same volume of PBS. The control group (4 mice) received equal volumes of PBS each day. Tumor length and width were measured using a Vernier caliper and the tumor volume was calculated using the standard formula: length×width^2×0.52. Tumor volumes ranged from 26 mm^3 to 73 mm^3, and the calculated tumor volume on a given day was divided by the volume on treatment day 0 to produce a fractional tumor volume (V/V0), as described above.

T1 sequence (P06756 31-889 limits assumed): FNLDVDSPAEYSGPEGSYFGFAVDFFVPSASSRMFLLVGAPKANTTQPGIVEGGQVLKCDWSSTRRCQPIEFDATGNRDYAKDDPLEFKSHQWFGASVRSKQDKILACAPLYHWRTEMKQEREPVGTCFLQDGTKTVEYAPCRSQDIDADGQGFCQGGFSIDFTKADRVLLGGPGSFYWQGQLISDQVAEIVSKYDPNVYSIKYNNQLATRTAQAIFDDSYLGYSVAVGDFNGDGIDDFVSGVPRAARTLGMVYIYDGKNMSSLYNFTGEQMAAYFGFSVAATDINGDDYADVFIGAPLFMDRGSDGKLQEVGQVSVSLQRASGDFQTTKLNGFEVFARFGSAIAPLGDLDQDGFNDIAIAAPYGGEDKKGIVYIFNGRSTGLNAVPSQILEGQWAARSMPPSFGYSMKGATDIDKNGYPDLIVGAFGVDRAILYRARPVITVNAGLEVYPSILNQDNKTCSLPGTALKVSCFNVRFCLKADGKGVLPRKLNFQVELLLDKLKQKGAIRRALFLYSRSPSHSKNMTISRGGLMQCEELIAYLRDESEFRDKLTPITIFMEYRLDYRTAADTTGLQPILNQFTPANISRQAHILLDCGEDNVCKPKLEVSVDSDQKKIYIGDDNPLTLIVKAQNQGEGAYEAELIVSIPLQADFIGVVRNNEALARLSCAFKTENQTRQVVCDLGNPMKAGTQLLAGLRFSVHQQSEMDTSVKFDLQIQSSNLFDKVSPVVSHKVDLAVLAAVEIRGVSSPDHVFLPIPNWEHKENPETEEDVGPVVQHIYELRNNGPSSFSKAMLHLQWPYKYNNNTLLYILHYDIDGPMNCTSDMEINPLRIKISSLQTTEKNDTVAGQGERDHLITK
T1 sequence (P06756 891-1048 partner limits assumed): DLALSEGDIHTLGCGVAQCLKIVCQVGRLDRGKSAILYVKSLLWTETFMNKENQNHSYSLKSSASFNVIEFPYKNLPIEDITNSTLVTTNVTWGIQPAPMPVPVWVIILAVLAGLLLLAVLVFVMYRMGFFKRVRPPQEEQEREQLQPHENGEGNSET
T1 sequence (P05106 27-788): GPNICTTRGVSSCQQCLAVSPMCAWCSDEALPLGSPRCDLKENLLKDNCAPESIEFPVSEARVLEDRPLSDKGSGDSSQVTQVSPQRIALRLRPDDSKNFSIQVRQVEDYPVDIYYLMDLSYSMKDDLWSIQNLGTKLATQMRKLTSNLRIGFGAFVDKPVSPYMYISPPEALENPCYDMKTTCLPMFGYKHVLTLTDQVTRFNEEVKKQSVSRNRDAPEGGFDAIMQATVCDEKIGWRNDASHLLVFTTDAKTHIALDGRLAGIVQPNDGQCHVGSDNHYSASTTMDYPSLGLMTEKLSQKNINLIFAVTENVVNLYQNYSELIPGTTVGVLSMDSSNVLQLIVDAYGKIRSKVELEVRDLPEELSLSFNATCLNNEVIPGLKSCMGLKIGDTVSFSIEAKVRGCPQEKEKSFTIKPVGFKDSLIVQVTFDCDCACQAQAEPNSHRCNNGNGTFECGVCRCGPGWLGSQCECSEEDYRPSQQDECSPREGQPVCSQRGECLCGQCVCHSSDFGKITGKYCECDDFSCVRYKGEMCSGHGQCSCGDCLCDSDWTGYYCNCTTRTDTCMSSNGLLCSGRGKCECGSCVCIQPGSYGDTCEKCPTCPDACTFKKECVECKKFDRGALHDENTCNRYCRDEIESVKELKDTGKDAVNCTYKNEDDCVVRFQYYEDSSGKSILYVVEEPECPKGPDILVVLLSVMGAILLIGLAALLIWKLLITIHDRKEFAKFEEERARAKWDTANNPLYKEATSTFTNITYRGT

LQRFTTMPFLFCNVNDVCNF [T3]
anti-proliferative effect after pre-incubation with αvβ3 integrin protein (human αvβ3 protein; peptide 20 μg/ml): significantly decreased

B1: Tumstatin-44-131: residues 44 to 131 of full-length Tumstatin (SEQ ID NO:33) (protein)
chain: FSFLFVQGNQRAHGQDLGTLGSCLQRFTTMPFLFCNVNDVCNFASRNDYSYWLSTPALMPMNMAPITGRALEPYISRCTVCEGPAIAI
modifications: Tumstatin-45-132 (amino acids 45-132 of SEQ ID NO10)
annexin fluorescence (C-PAE cells; 5 μg/ml Tumstatin-44-131, 18 hours): distinct shift of the fluorescence intensity peak
Apo (Annexin V-FITC assay) (C-PAE cells): active
reversal of anti-proliferative effect by soluble αvβ3 protein (human αvβ3 protein; αvβ3 protein at 1 μg/ml, 20% FCS): 65.9%

B2: Tum-2: residues 1 to 132 of Tumstatin (SEQ ID NO:23) (protein)
chain: GLKGKRGDSGSPATWTTRGFVFTRHSQTTAIPSCPEGTVPLYSGFSFLFVQGNQRAHGQDLGTLGSCLQRFTTMPFLFCNVNDVCNFASRNDYSYWLSTPALMPMNMAPITGRALEPYISRCTVCEGPAIAI
modifications: Tum-2 (amino acids 1-132 of SEQ ID NO10)
recovery of anti-proliferative effect by soluble αvβ3 protein (human αvβ3 protein; 2 g/ml αvβ3 protein (so in the source)): 74.1%

B3: Tum-1: residues 54 to 244 of Tumstatin, lacking the N-terminal 53 amino acids (SEQ ID NO:22) (protein)
chain: QRAHGQDLGTLGSCLQRFTTMPFLFCNVNDVCNFASRNDYSYWLSTPALMPMNMAPITGRALEPYISRCTVCEGPAIAIAVHSQTTDIPPCPHGWISLWKGFSFIMFTSAGSEGTGQALASPGSCLEEFRASPFLECHGRGTCNYYSNSYSFWLASLNPERMFRKPIPSTVKAGELEKIISRCQVCMKKRH
modifications: Tum-1 (Tumstatin N-53) (amino acids 54-244 of SEQ ID NO10)
anti-tumor activity (PC-3 tumors; PC3 prostate xenograft model, 5 mg or 20 mg per kilogram): substantial anti-tumor activity
IC50, induction of endothelial cell apoptosis (C-PAE cells): about 5 μg/ml
Apo (Annexin V-FITC assay) (C-PAE cells): 5 µg

B4: Can-1: N-terminal 114 amino acids of full-length Canstatin (protein, listed as Homo sapiens)
chain: VSIGYLLVKHSQTDQEPMCPVGMNKLWSGYSLLYFEGQEKAHNQDLGLAGSCLARFSTMPFLYCNPGDVCYYASRNDKSYWLSTTAPLPMMPVAEDEIKPYISRCSVCEAPAIA
induction of apoptosis (C-PAE cells; concentrations above 1 μg/ml): induced apoptosis
induction of apoptosis (C-PAE cells; concentrations of less than 1 μg/ml): most potent in inducing apoptosis

B5: Canstatin: NC1 domain of the α2 chain of Type IV collagen (SEQ ID NO:6) (protein, listed as Homo sapiens)
chain: VSIGYLLVKHSQTDQEPMCPVGMNKLWSGYSLLYFEGQEKAHNQDLGLAGSCLARFSTMPFLYCNPGDVCYYASRNDKSYWLSTTAPLPMMPVAEDEIKPYISRCSVCEAPAIAIAVHSQDVSIPHCPAGWRSLWIGYSFLMHTAAGDEGGGQSLVSPGSCLEDFRATPFIECNGGRGTCHYYANKYSFWLTTIPEQSFQGSPSADTLKAGLIRTHISRCQVCMKNL
tumor suppression compared with endostatin (PC-3 tumors; 3 mg/kg Canstatin): same suppressive effect as 8 mg/kg of endostatin
treated tumors, fold less than placebo (PC-3 tumors; athymic (nu/nu) mice): 2.4 fold
condition of mice during treatment (PC-3 tumors; mouse, in vivo): appeared healthy with no signs of wasting
induction of apoptosis (C-PAE cells; 15 μg/ml Canstatin, 24 hours): specifically induce apoptosis of endothelial cells
induction of apoptosis (C-PAE cells; concentrations above 1 μg/ml): induced apoptosis

B6: endostatin: tumor associated angiogenesis inhibitor used as comparator (protein, UniProt P39060 1572-1754, looked up)
Endostatin: HSHRDFQPVLHLVALNSPLSGGMRGIRGADFQCFQQARAVGLAGTFRAFLSSRLQDLYSIVRRADRAAVPIVNLKDELLFPSWEALFSGSEGPLKPGARIFSFDGKDVLRHPTWPQKSVWHGSDPNGRRLTESYCETWRTEAPSATGQASSLLGGRLLGQSAASCHHAYIVLCIENSFMTASK
modifications: Endostatin
tumor suppression (PC-3 tumors; 5 mg/kg endostatin): not able to suppress tumor growth
tumor volume on day 10 (PC-3 tumors): 68.9±16.7 mm^3
IC50, induction of endothelial cell apoptosis (C-PAE cells): no activity

B7: Tumstatin: NC1 domain of the α3 chain of type IV collagen, residues 1-244 (SEQ ID NO:10) (protein, listed as Homo sapiens)
chain: GLKGKRGDSGSPATWTTRGFVFTRHSQTTAIPSCPEGTVPLYSGFSFLFVQGNQRAHGQDLGTLGSCLQRFTTMPFLFCNVNDVCNFASRNDYSYWLSTPALMPMNMAPITGRALEPYISRCTVCEGPAIAIAVHSQTTDIPPCPHGWISLWKGFSFIMFTSAGSEGTGQALASPGSCLEEFRASPFLECHGRGTCNYYSNSYSFWLASLNPERMFRKPIPSTVKAGELEKIISRCQVCMKKRH
tumor volume on day 10 (PC-3 tumors): 82.9±25.2 mm^3
annexin fluorescence (C-PAE cells; 2 μg/ml, 18 hours): mild shift
annexin fluorescence (C-PAE cells; 20 μg/ml, 18 hours): distinct shift of annexin fluorescence peak
Apo (Annexin V-FITC assay) (C-PAE cells): 10 µg
annexin fluorescence (C-PAE cells; concentrations below 0.2 μg/ml): did not demonstrate any annexin V positivity
reversal of anti-proliferative effect by soluble αvβ3 protein (human αvβ3 protein; αvβ3 at 2.4 μg/ml (3-fold molar excess), Tumstatin 0.1 μg/ml): 43.1%
